Legend:
[1] = test system: PSCs; assay: Pancreatic stellate cell (PSC) activation in vitro; type: cell-based; conditions: treatment with IL-11, 24 hours
Method: FIGS. 48A and 48B. Box plots and images showing activation of pancreatic stellate cells (PSCs) to a αSMA-positive, collagen-expressing fibrogenic phenotype. (A) Quantification of high-content imaging assays for the percentage of ACTA2-positive cells and collagen I intensity/area following in vitro stimulation of PSCs for 24 hours with the indicated factors, in the presence or absence of neutralising anti-IL-11 RA antibody or IgG isotype control antibody. (B) Representative images for high-content imaging analysis of collagen I intensity/area following in vitro stimulation of PSCs for 24 hours with the indicated factors, in the presence of neutralising anti-IL-11 RA antibody or IgG isotype control antibody.

[2] = test system: HSCs; assay: HSC-to-myofibroblast transformation (ACTA2/Collagen I, Operetta); type: cell-based, human; conditions: IL-11 5 ng/ml, 24 h
Method: Cells (atrial fibroblasts, HSCs and hepatocytes) were grown and maintained at 37° C. and 5% CO2. The growth medium was renewed every 2-3 days and cells were passaged at 80-90% confluence using standard trypsinization techniques. All the experiments were carried out at low cell passage (P1-P2). Cells were serum-starved for 16 h prior to stimulations. Stimulated cells were compared to unstimulated cells that have been grown for the same duration under the same conditions (serum-free media), but without the stimuli.
HSCs (5300, ScienCell) were cultured in stellate cells complete media (5301, ScienCell) on poly-L-lysine-coated plates (2 μg/cm2, 0403, ScienCell).
The Operetta assay was performed mostly as described previously 11 with minor modifications described here: HSCs or hepatocytes were seeded in 96-well black CellCarrier plates (PerkinElmer) at a density of 5×10^3 cells per well. Following experimental conditions, cells were fixed in 4% paraformaldehyde (PFA, 28908, Thermo Fisher), permeabilized with 0.1% Triton X-100 (Sigma) and non-specific sites were blocked with 0.5% BSA and 0.1% Tween-20 in PBS. Cells were incubated overnight (4° C.) with primary antibodies (1:500), followed by incubation with the appropriate AlexaFluor 488 secondary antibodies (1:1000). Rhodamine Phalloidin staining (1:1000, R415, Thermo Fisher) was performed by overnight incubation (4° C.). […]

[3] = test system: HSCs; assay: CCL2 secretion by HSCs (ELISA); type: cell-based, human; conditions: IL-11 5 ng/ml
Method: FIG. 31A to 31H. Neutralizing anti-IL-11 and anti-IL11 RA antibodies protect HFMCD-fed mice from hepatic fibrosis and inflammation. (A) CCL2 in the supernatants of HSCs (n=4/group) without stimulus (−), with IL-11, or with TGFβ1 in the presence of IgG, X203, or X209 by ELISA; IL-11 (5 ng m1^−1), TGFβ1 (5 ng m1^−1), IgG, X203, and X209 (2 μg m1^−1). (B) Representative gross liver images, (C) Western blots of hepatic ERK activation status, (D) representative (scale bars, 100 μm) and (E) quantification of Masson's Trichrome stained images of livers after 5 weeks of early X203 and X209 treatments. (F) Liver hydroxyproline content (the values of NC and HFMCD 1 week diets are the same as those used in FIG. 25C, the values of IgG 3 and 6 weeks are the same as those used in FIG. 22F, n≥5/group), (G) relative RNA expression levels of fibrosis markers in the livers after 5 weeks treatment of X203 and X209 by qPCR, which confirms data from RNA-seq (the values of NC 6 week for Col1a1, Col1a2, Col3a1, and Acta2 are the same as those shown in FIG. 28D, n≥5/group), and (H) serum ALT levels (the values of NC and HFMCD 1 week are the same as those used in FIG. 25D, the values of IgG 3 and 6 weeks (2 weeks and 5 weeks treatment, respectively) are the same as those used in FIG. 22G, n≥5/group). […]

[4] = test system: ERK; assay: ERK activation in HSCs (Western blot); type: cell-based, human; conditions: stimulation with IL-11
Method: Western blots were carried out on total protein extracts from HSCs and liver tissues. Both cells and frozen tissues were homogenized in radioimmunoprecipitation assay (RIPA) buffer containing protease and phosphatase inhibitors (Thermo Scientifics), followed by centrifugation to clear the lysate. Protein concentrations were determined by Bradford assay (Bio-Rad). Equal amount of protein lysates were separated by SDS-PAGE, transferred to PVDF membrane, and subjected to immunoblot analysis for the indicated primary antibodies. Proteins were visualized using the ECL detection system (Pierce) with the appropriate secondary antibodies.

[5] = test system: HSCs; assay: Matrigel invasion assay of HSCs; type: cell-based, human; conditions: 48 h
Method: The invasive behavior of human HSCs was assayed using 24-well Boyden chamber invasion assays (Cell Biolabs Inc.). Equal numbers of HSCs in serum-free HSC media were seeded in triplicates onto the ECM-coated matrigel and were allowed to invade towards HSC media containing 0.2% FBS. After 48 h of incubation with stimuli, media was aspirated and non-invasive cells were removed using cotton swabs. The cells that invaded towards the bottom chamber were stained with cell staining solution (Cell Biolabs Inc.) and invasive cells from 5 non-overlapping fields/membrane were imaged and counted under 40× magnification. For antibody inhibition experiments, HSCs were pretreated with X203, X209, or IgG control antibodies for 15 m prior to addition of stimuli.

[6] = target: IL-11Rα; conditions: IL-11Rα alone, low affinity; cited from earlier work
[7] = test system: primary human hepatocytes; assay: Stimulation of primary human hepatocytes with IL11, hyperIL11, hyperIL6; type: cell-based
Method: Human hepatocytes (5200, ScienCell) were grown and maintained in hepatocyte media (5201, ScienCell) supplemented with 2% fetal bovine serum (FBS) and 1% Penicillin-streptomycin.
Primary human hepatocytes (5200, ScienCell) were maintained in hepatocyte medium ([…], ScienCell) supplemented with 2% fetal bovine serum, 1% Penicillin-streptomycin at 37° C. and 5% CO2. Hepatocytes (P2-P3) were serum-starved overnight unless otherwise specified in the methods prior to 24 hours stimulation with different doses of various recombinant proteins as described.
For surface IL11RA, IL6R, and gp130 analysis, primary human hepatocytes and THP-1 cells were stained with IL11RA, IL6R, or gp130 antibody and the corresponding Alexa Fluor 488 secondary antibody. Cell death analysis was performed by staining primary human hepatocytes with Dead Cell Apoptosis Kit with Annexin V FITC and PI (V13242, Thermo Fisher). PI+ve cells were then quantified with the flow cytometer (Fortessa, BD Biosciences) and analyzed with FlowJo version X software (TreeStar).
Alanine Aminotransferase (ALT) activity in the cell culture supernatant and mouse serum was measured using ALT Activity Assay Kit (ab105134, Abcam). Liver Glutathione (GSH) levels were measured using Glutathione Colorimetric Detection Kit (EIAGSHC, Thermo Fisher). Total hydroxyproline content in mouse livers was measured using Quickzyme Total Collagen assay kit (QZBtotco15, Quickzyme Biosciences). The levels of serum and liver triglycerides were measured using Triglyceride Assay Kit (ab65336, Abcam). Mouse serum levels of Aspartate Aminotransferase (AST) and cholesterol were measured using AST Assay Kit (ab105135, Abcam) and Cholesterol Assay Kit (ab65390; Abcam), respectively. All colorimetric assays were performed according to the manufacturer's protocol.
Western blots were carried out on total protein extracts from hepatocytes and liver tissues. Hepatocyte and liver tissue lysates were homogenized in RIPA Lysis and Extraction Buffer (89901, Thermo Scientific) containing protease and phosphatase inhibitors (Roche). Protein lysates were separated by SDS-PAGE and transferred to PVDF membranes. Protein bands were visualized using the ECL detection system (Pierce) with the appropriate secondary antibodies: anti-rabbit HRP or anti-mouse HRP.

B1: IL-11: Interleukin 11; recombinant human IL11 (UniProtKB:P20809) used to stimulate cells (protein, listed as Homo sapiens)
chain: MNCVCRLVLVVLSLWPDTAVAPGPPPGPPRVSPDPRAELDSTVLLTRSLLADTRQLAAQLRDKFPADGDHNLDSLPTLAMSAGALGALQLPGVLTRLRADLLSYLRHVQWLRRAGGSSLKTLEPELGTLQARLDRLLRRLQLLMSRLALPQPPPDPPAPPLAPPSSAWGGIRAAHAILGGLHLTLDWAVRGLLLLKTRL
modifications: IL-11 (UniProt P20809)
notes: Interleukin 11; recombinant human IL11 (UniProtKB:P20809) used to stimulate cells
[1]
  PSC activation: triggered
[2]
  activation of HSCs into ACTA2+ve myofibroblasts: activated HSCs to a similar extent as TGFβ1 or PDGF
[3]
  HSC production of CCL2: stimulated HSC production of CCL2
[4]
  ERK activation in HSCs: directly activates ERK
[5]
  matrix invasion by HSCs: promoted dose-dependent matrix invasion
[6]
  Kd: ~10 nM
[7]; IL11 0.625 ng/ml to 20 ng/ml
  hepatocyte cell death: caused hepatocyte cell death
[7]; IL-11, dose range
  expression of stress fibres in hepatocytes: progressive increase in expression of stress fibres
[7]; physiological levels of IL-11
  release of ALT from hepatocytes: dose-dependent release of ALT
